Consider 1 molecule from patent US20230183334A1, “THERAPEUTIC ANTIBODY FORMULATION” (published 2023).

For this test, the target named is T1, IL-17A (human, UniProt Q16552).
T1 sequence: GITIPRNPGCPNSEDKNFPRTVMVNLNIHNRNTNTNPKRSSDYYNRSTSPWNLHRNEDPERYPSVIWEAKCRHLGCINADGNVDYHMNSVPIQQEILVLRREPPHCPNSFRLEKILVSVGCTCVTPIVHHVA
The experiment in a line: cell-based or functional assay.

B1: ixekizumab (antibody, V domains shown)
VH: QVQLVQSGAEVKKPGSSVKVSCKASGYSFTDYHIHWVRQAPGQGLEWMGVINPMYGTTDYNQRFKGRVTITADESTSTAYMELSSLRSEDTAVYYCARYDYFTGTGVYWGQGTLVTVSS
VL: DIVMTQTPLSLSVTPGQPASISCRSSRSLVHSRGNTYLHWYLQKPGQSPQLLIYKVSNRFIGVPDRFSGSGSGTDFTLKISRVEAEDVGVYYCSQSTHLPFTFGQGTKLEIKR
On to B1, for which the “Relative potency of Formulation A (% relative to Formulation B; ratio of EC50s), 1 month at 5° C.” value is 101%; the “Relative potency of Formulation A (% relative to Formulation B; ratio of EC50s), 1 month at 25° C.” value was found to be 98%; the “Relative potency of Formulation A (% relative to Formulation B; ratio of EC50s), 1 month at 35° C.” value was found to be 101%; the “Relative potency of Formulation A (% relative to Formulation B; ratio of EC50s), 6 months at 5° C.” value came to 103%. Also, the “Relative potency of Formulation A (% relative to Formulation B; ratio of EC50s), 12 months at 5° C.” value stood at 98%.
